Reference: US6897197

Target: human MDM2, full length (CMV driven expression construct pCHDM1A) (human) (UniProt Q00987)
Test: cell-based or functional assay

Chain of human MDM2, full length (CMV driven expression construct pCHDM1A) (human) (Q00987 whole entry): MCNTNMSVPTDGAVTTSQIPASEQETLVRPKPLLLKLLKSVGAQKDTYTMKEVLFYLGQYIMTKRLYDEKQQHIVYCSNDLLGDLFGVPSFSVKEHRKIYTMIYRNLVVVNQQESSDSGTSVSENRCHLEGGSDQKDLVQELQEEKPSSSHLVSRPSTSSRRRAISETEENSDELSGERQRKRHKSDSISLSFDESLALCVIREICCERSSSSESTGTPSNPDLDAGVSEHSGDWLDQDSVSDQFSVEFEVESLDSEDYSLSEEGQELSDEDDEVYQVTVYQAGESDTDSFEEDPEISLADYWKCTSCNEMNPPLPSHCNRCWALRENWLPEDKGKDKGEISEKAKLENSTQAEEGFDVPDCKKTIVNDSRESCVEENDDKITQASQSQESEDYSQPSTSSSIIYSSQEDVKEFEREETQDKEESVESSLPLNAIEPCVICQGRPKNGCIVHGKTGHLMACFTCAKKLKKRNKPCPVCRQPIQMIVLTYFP

transformed foci in MDM2/RAS REF cotransformation with p19^ARF added (40 foci without): 3 foci
Substance: mouse p19^ARF (complete ORF, expression construct in pVNic) (from UniProt Q64364 1-169)
